Measurements published in the RNAGym collection of RNA variant scans (doi:10.1021/acssynbio.7b00057).

B1: Pistol ribozyme (parent)
chain: GGGUCGUUGUUCCAUAAUCGCGUGGAUAUGGCACGCAAGUUUCUACCGGGCACCGUAAAUGUCCGACUGGAGCCGUUCGGGCGGCUAUAAACAGACCUCAGGCCCGAAGCGUGGCGGCACCUGCCGCCGGUGGUAAAAAAGAUCGGAAGAGCACACGUCU

Variants of: B1
Test: aptazyme ON/OFF ratio, guanine; higher = stronger switching; co-transcriptional cleavage with and without guanine

| Variant | aptazyme ON/OFF ratio |
| --- | --- |
| G9U U10G U11G C12A | 1.75 |
| U7A U8A G9U U10C U11C | 1.04 |
| U7G U8C G9C C12U | 1.28 |
| U7C U10G U11C C13U | 1.02 |
| U7A G9C U10A U11C C12U C13U | 1.12 |
| U7A U8A G9A U10G U11C C12U C13A | 1.07 |
| U7A U8A G9C U10G U11C | 1.1 |
| U7A G9C U10A U11C C12A C13A | 1.06 |
| U8A G9U U10C U11C | 1.04 |
| G9A U10A C12A C13A | 1.61 |
| U7G U8A G9C U10A U11A C12G | 1.03 |
| U7G U8G G9A U10C U11C C12U | 1.1 |
| U8G U11C C12G C13U | 1.2 |
| U7G U8A G9A U10C U11G C12A | 1.04 |
| U7A U8G G9U U10A U11G C13G | 1.12 |
| U7C U8A G9A C12G C13A | 1.17 |
| U7A U8C G9U U11G C12U C13G | 1.14 |
| G9U U11G C12G C13A | 1.49 |
| U8A G9U U10A U11G C12A | 1.07 |
| U7G U8G G9A U11G C12U C13G | 1.25 |
| U8A U11G C13U | 1.04 |

| Variant | aptazyme ON/OFF ratio |
| --- | --- |
| U7G U8A G9U U10G U11G C12U | 1.15 |
| U7G G9U U11C C12G C13A | 1.22 |
| U7G U8C G9C U10A U11A C12A | 1.19 |
| U7C U8G G9C C12U C13A | 1.16 |
| U8G G9A U10A U11G C12G C13U | 1.28 |
| U7C U8C G9U U10C U11A C13U | 1.23 |
| U8C U10C C12G | 1.29 |
| U7G U8G G9A U11G C12G C13A | 1.12 |
| U7G U8C U11A | 1.39 |
| U7G G9U U11A C12A C13G | 1.23 |
| U7G G9C U11C C12A | 2.21 |
| U7G U8A G9C U10C C12A C13A | 1.07 |
| U7C U8C G9C U11G | 1.24 |
| U7G U8G G9U U11G C12A C13U | 1.16 |
| U7C U8A G9U U10A U11G C12A C13G | 1.15 |
| U8G U10A U11A C12A | 1.12 |
| U7A U11A C13U | 1.13 |
| U7A G9U U10G U11C C12G | 1.21 |
| U7A U8G G9C U10A U11G | 1.9 |
| U7G G9A U10C U11G C13A | 1.09 |
| U7A U8C G9A U10C U11C C12U | 1.04 |

| Variant | aptazyme ON/OFF ratio |
| --- | --- |
| U7C U11C C12U C13U | 1.29 |
| U8G U11A C13U | 1.33 |
| G9U U10C U11A C12A C13G | 1.24 |
| U7A U8A G9C C12U C13G | 1.23 |
| U8G C12A | 1.69 |
| U7A U8G G9C C12U C13A | 1.4 |
| U7A G9U U11A C12U C13A | 1.41 |
| U7G U10G U11A C12U | 1.1 |
| U8G U11A C12G C13A | 1.1 |
| U7C U8G G9C U11A C13A | 1.17 |
| U7A U8C G9C U10A C12U C13G | 1.07 |
| G9A U10C C12G C13G | 1.23 |
| U7G U8C G9A U10G C12G C13G | 1.05 |
| U7G U8C G9C U11A C12G C13U | 1.1 |
| G9U U11C C12A C13U | 1.36 |
| U7G U8C G9A U10A C12G C13G | 1.08 |
| U7G U8G G9U U10G U11G C12A C13G | 1.1 |
| U7A U8A U10A U11C C13G | 1.06 |
| U7C U8G G9C U11G C12U C13U | 1.37 |
| U7A G9U U10G U11A C12A | 1.2 |
| U7A G9C U10C C12A C13G | 1.04 |

| Variant | aptazyme ON/OFF ratio |
| --- | --- |
| U8C G9U U10C U11C C12U C13A | 1.07 |
| U7C U8G G9A U10A U11G C12G C13G | 1.39 |
| U7C G9A U11G C12A C13U | 1.14 |
| U7G U8C G9A U10A U11G C13G | 1.04 |
| U7A U8G G9U U11C C13G | 1.06 |
| G9U U10C U11C C12U | 1.31 |
| U8G U10A U11G C12U C13G | 1.22 |
| U7G U8G U10G U11G C12U | 1.36 |
| U7C G9U U10C U11C C12G | 1.02 |
| U7G U8C G9C U11A C12A C13A | 1.11 |
| U7G U8C G9U U10C C12U C13G | 1.24 |
| U7G U8C G9A U10C C12G C13A | 1.12 |
| U7A U8C C13G | 1.16 |
| U8C G9U U10C U11C C13G | 1.02 |
| U8A C12A C13U | 1.19 |
| U8G G9A U10A C12A C13A | 1.33 |
| U8A G9A U10G U11A C12G C13G | 1.19 |
| U8G G9U U10A U11G | 1.16 |
| U7A U8C G9U C13A | 1.27 |
| U7A G9A U10G U11C | 1.06 |
| U7C U8G G9U U10A U11G C12U C13G | 1.14 |
